Laboratory results from the supplement of paper PMC11246515.
± gives the standard deviation of the averaged measurements.

Experiment: total protein half-life in vivo (active degradation + dilution); higher = more stable protein
[1] = E. coli NCM3722 delta-clpP delta-lon delta-hslV, growth: N-lim chemostat, doubling time 6 h
[2] = E. coli NCM3722 delta-clpP, growth: N-lim chemostat, doubling time 6 h
[3] = E. coli NCM3722 delta-hslV, growth: N-lim chemostat, doubling time 6 h
[4] = E. coli NCM3722 delta-smpB, growth: N-lim chemostat, doubling time 6 h
[5] = wild type E. coli NCM3722, growth: C-lim chemostat, doubling time 3 h
[6] = wild type E. coli NCM3722, growth: C-lim chemostat, doubling time 6 h
[7] = wild type E. coli NCM3722, growth: C-lim chemostat, doubling time 12 h
[8] = wild type E. coli NCM3722, growth: N-lim chemostat, doubling time 6 h
[9] = wild type E. coli NCM3722, growth: P-lim chemostat, doubling time 6 h
[10] = wild type E. coli NCM3722, growth: P-lim chemostat, doubling time 12 h
[11] = E. coli NCM3722 delta-lon, growth: N-lim chemostat, doubling time 6 h
[12] = wild type E. coli NCM3722, growth: N-lim chemostat, doubling time 12 h

Row | Sequence | total protein half-life in vivo [1] [h] | total protein half-life in vivo [2] [h] | total protein half-life in vivo [3] [h] | total protein half-life in vivo [4] [h] | total protein half-life in vivo [5] [h] | total protein half-life in vivo [6] [h] | total protein half-life in vivo [7] [h] | total protein half-life in vivo [8] [h] | total protein half-life in vivo [9] [h] | total protein half-life in vivo [10] [h] | total protein half-life in vivo [11] [h] | total protein half-life in vivo [12] [h]
1 | MNKSGKYLVWTVLSVMGAFALGYIALNRGEQINALWIVVASVCIYLIAYRFYGLYIAKNVLAVDPTRMTPAVRHNDGLDYVPTDKKVLFGHHFAAIAGAGPLVGPVLAAQMGYLPGMIWLLAGVVLAGAVQDFMVLFVSTRRDGRSLGELVKEEMGPTAGVIALVACFMIMVIILAVLAMIVVKALTHSPWGTYTVAFTIPLALFMGIYLRYLRPGRIGEVSVIGLVFLIFAIISGGWVAESPTWAPYFDFTGVQLTWMLVGYGFVAAVLPVWLLLAPRDYLSTFLKIGTIVGLAVGILIMRPTLTMPALTKFVDGTGPVWTGNLFPFLFITIACGAVSGFHALISSGTTPKMLANEGQACFIGYGGMLMESFVAIMALVSACIIDPGVYFAMNSPMAVLAPAGTADVVASAAQVVSSWGFSITPDTLNQIASEVGEQSIISRAGGAPTLAVGMAYILHGALGGMMDVAFWYHFAILFEALFILTAVDAGTRAARFMLQDLLGVVSPGLKRTDSLPANLLATALCVLAWGYFLHQGVVDPLGGINTLWPLFGIANQMLAGMALMLCAVVLFKMKRQRYAWVALVPTAWLLICTLTAGWQKAFSPDAKVGFLAIANKFQAMIDSGNIPSQYTESQLAQLVFNNRLDAGLTIFFMVVVVVLALFSIKTALAALKDPKPTAKETPYEPMPENVEEIVAQAKGAH | 5.72 | 4.33 | 4.49 ± 0.2 | 4.96 ± 1.1 | 3.36 ± 0.37 | 5.34 ± 0.24 | 11.7 ± 0.39 | 5.33 ± 0.76 | 5.517 ± 0.042 | 10.3 ± 0.19 |  | 
2 | MNKSLVAVGVIVALGVVWTGGAWYTGKKIETHLEDMVAQANAQLKLTAPESNLEVSYQNYHRGVFSSQLQLLVKPIAGKENPWIKSGQSVIFNESVDHGPFPLAQLKKLNLIPSMASIQTTLVNNEVSKPLFDMAKGETPFEINSRIGYSGDSSSDISLKPLNYEQKDEKVAFSGGEFQLNADRDGKAISLSGEAQSGRIDAVNEYNQKVQLTFNNLKTDGSSTLASFGERVGNQKLSLEKMTISVEGKELALLEGMEISGKSDLVNDGKTINSQLDYSLNSLKVQNQDLGSGKLTLKVGQIDGEAWHQFSQQYNAQTQALLAQPEIANNPELYQEKVTEAFFSALPLMLKGDPVITIAPLSWKNSQGESALNLSLFLKDPATTKEAPQTLAQEVDRSVKSLDAKLTIPVDMATEFMTQVAKLEGYQEDQAKKLAKQQVEGASAMGQMFRLTTLQDNTITTSLQYANGQITLNGQKMSLEDFVGMFAMPALNVPAVPAIPQQ | 6.64 ± 0.32 | 6.77 ± 0.68 | 6.24 ± 0.28 | 6 ± 0.23 | 3.14 ± 0.049 | 5.99 ± 0.08 | 11.8 ± 1.2 | 6.21 ± 0.15 | 5.98 ± 0.13 | 12.9 ± 0.87 | 6.136 ± 0.016 | 13.15 ± 0.042
3 | MNKSMLAGIGIGVAAALGVAAVASLNVFERGPQYAQVVSATPIKETVKTPRQECRNVTVTHRRPVQDENRITGSVLGAVAGGVIGHQFGGGRGKDVATVVGALGGGYAGNQIQGSLQESDTYTTTQQRCKTVYDKSEKMLGYDVTYKIGDQQGKIRMDRDPGTQIPLDSNGQLILNNKV [P0AB35] | 0.776 ± 0.14 | 0.716 |  | 0.623 | 0.834 |  |  | 0.945 | 0.416 | 1.21 |  | 
4 | MNKTEFYADLNRDFNALMAGETSFLATLANTSALLYERLTDINWAGFYLLEDDTLVLGPFQGKIACVRIPVGRGVCGTAVARNQVQRIEDVHVFDGHIACDAASNSEIVLPLVVKNQIIGVLDIDSTVFGRFTDEDEQGLRQLVAQLEKVLATTDYKKFFASVAG | 4.82 ± 0.66 | 4.43 ± 0.32 | 4 ± 0.26 | 4.22 ± 0.21 | 3.22 ± 0.55 | 5.38 ± 0.12 | 11.8 ± 3.1 | 4.33 ± 0.57 | 5.8 ± 0.83 | 9.9 ± 0.11 | 4.523 ± 0.034 | 7.72 ± 0.91
5 | MNKTTEYIDAMPIAASEKAALPKTDIRAVHQALDAEHRTWAREDDSPQGSVKARLEQAWPDSLADGQLIKDDEGRDQLKAMPEAKRSSMFPDPWRTNPVGRFWDRLRGRDVTPRYLARLTKEEQESEQKWRTVGTIRRYILLILTLAQTVVATWYMKTILPYQGWALINPMDMVGQDLWVSFMQLLPYMLQTGILILFAVLFCWVSAGFWTALMGFLQLLIGRDKYSISASTVGDEPLNPEHRTALIMPICNEDVNRVFAGLRATWESVKATGNAKHFDVYILSDSYNPDICVAEQKAWMELIAEVGGEGQIFYRRRRRRVKRKSGNIDDFCRRWGSQYSYMVVLDADSVMTGDCLCGLVRLMEANPNAGIIQSSPKASGMDTLYARCQQFATRVYGPLFTAGLHFWQLGESHYWGHNAIIRVKPFIEHCALAPLPGEGSFAGSILSHDFVEAALMRRAGWGVWIAYDLPGSYEELPPNLLDELKRDRRWCHGNLMNFRLFLVKGMHPVHRAVFLTGVMSYLSAPLWFMFLALSTALQVVHALTEPQYFLQPRQLFPVWPQWRPELAIALFASTMVLLFLPKLLSILLIWCKGTKEYGGFWRVTLSLLLEVLFSVLLAPVRMLFHTVFVVSAFLGWEVVWNSPQRDDDSTSWGEAFKRHGSQLLLGLVWAVGMAWLDLRFLFWLAPIVFSLILSPFVSVISSRATVGLRTKRWKLFLIPEEYSPPQVLVDTDRFLEMNRQRSLDDGFMHAVFNPSFNALATAMATARHRASKVLEIARDRHVEQALNETPEKLNRDRRLVLLSDPVTMARLHFRVWNSPERYSSWVSYYEGIKLNPLALRKPDAASQ | 6.7 ± 0.34 | 6.54 ± 0.33 | 6.46 ± 0.79 | 5.99 ± 0.24 | 3.26 ± 0.39 | 6.45 ± 0.66 |  | 6.22 ± 0.42 | 6.3 ± 0.32 | 13.3 ± 1.8 | 6.41 ± 0.39 | 13.4 ± 0.32
6 | MNKVAQYYRELVASLSERLRNGERDIDALVEQARERVIKTGELTRTEVDELTRAVRRDLEEFAMSYEESLKEESDSVFMRVIKESLWQELADITDKTQLEWREVFQDLNHHGVYHSGEVVGLGNLVCEKCHFHLPIYTPEVLTLCPKCGHDQFQRRPFEP [P0AAT9] | 5.96 ± 0.99 | 4.62 ± 0.043 | 4.74 ± 0.38 | 4.05 ± 0.48 | 2.81 ± 0.34 | 4.632 ± 0.011 | 8.29 ± 0.47 | 3.87 ± 0.6 | 5.95 ± 1.4 | 10.9 ± 0.48 | 5.364 ± 0.034 | 10.7 ± 3.1
7 | MNKYWLSGIIFLAYGLASPAFSSETATLAINGRISPPTCSMAMVNGQPQQHCGQLTYNVDTRHLFSSPVKGVTTEVVVAGSDSKRRIVLNRYD | 1.53 |  |  | 0.626 ± 0.25 |  | 0.465 |  |  |  |  |  | 
8 | MNLHEYQAKQLFARYGLPAPVGYACTTPREAEEAASKIGAGPWVVKCQVHAGGRGKAGGVKVVNSKEDIRAFAENWLGKRLVTYQTDANGQPVNQILVEAATDIAKELYLGAVVDRSSRRVVFMASTEGGVEIEKVAEETPHLIHKVALDPLTGPMPYQGRELAFKLGLEGKLVQQFTKIFMGLATIFLERDLALIEINPLVITKQGDLICLDGKLGADGNALFRQPDLREMRDQSQEDPREAQAAQWELNYVALDGNIGCMVNGAGLAMGTMDIVKLHGGEPANFLDVGGGATKERVTEAFKIILSDDKVKAVLVNIFGGIVRCDLIADGIIGAVAEVGVNVPVVVRLEGNNAELGAKKLADSGLNIIAAKGLTDAAQQVVAAVEGK [P0A836] | 4.73 ± 0.42 | 4.59 ± 0.34 | 4.45 ± 0.2 | 4.18 ± 0.058 | 3.08 ± 0.061 | 5.79 ± 0.26 | 10.5 ± 1.7 | 4.46 ± 0.14 | 5.95 ± 0.15 | 12.2 ± 1.2 | 4.87 ± 0.23 | 7.39 ± 0.36
9 | MNLLIDNWIPVRPRNGGKVQIINLQSLYCSRDQWRLSLPRDDMELAALALLVCIGQIIAPAKDDVEFRHRIMNPLTEDEFQQLIAPWIDMFYLNHAEHPFMQTKGVKANDVTPMEKLLAGVSGATNCAFVNQPGQGEALCGGCTAIALFNQANQAPGFGGGFKSGLRGGTPVTTFVRGIDLRSTVLLNVLTLPRLQKQFPNESHTENQPTWIKPIKSNESIPASSIGFVRGLFWQPAHIELCDPIGIGKCSCCGQESNLRYTGFLKEKFTFTVNGLWPHPHSPCLVTVKKGEVEEKFLAFTTSAPSWTQISRVVVDKIIQNENGNRVAAVVNQFRNIAPQSPLELIMGGYRNNQASILERRHDVLMFNQGWQQYGNVINEIVTVGLGYKTALRKALYTFAEGFKNKDFKGAGVSVHETAERHFYRQSELLIPDVLANVNFSQADEVIADLRDKLHQLCEMLFNQSVAPYAHHPKLISTLALARATLYKHLRELKPQGGPSNG | 5.99 ± 0.51 |  |  | 2.728 ± 0.0011 |  | 3.27 | 6.24 |  | 2.97 | 6.78 ± 1.8 |  | 
10 | MNLLKSLAAVSSMTMFSRVLGFARDAIVARIFGAGMATDAFFVAFKLPNLLRRIFAEGAFSQAFVPILAEYKSKQGEDATRVFVSYVSGLLTLALAVVTVAGMLAAPWVIMVTAPGFADTADKFALTSQLLKITFPYILLISLASLVGAILNTWNRFSIPAFAPTLLNISMIGFALFAAPYFNPPVLALAWAVTVGGVLQLVYQLPHLKKIGMLVLPRINFHDAGAMRVVKQMGPAILGVSVSQISLIINTIFASFLASGSVSWMYYADRLMEFPSGVLGVALGTILLPSLSKSFASGNHDEYNRLMDWGLRLCFLLALPSAVALGILSGPLTVSLFQYGKFTAFDALMTQRALIAYSVGLIGLIVVKVLAPGFYSRQDIKTPVKIAIVTLILTQLMNLAFIGPLKHAGLSLSIGLAACLNASLLYWQLRKQKIFTPQPGWMAFLLRLVVAVLVMSGVLLGMLHIMPEWSLGTMPWRLLRLMAVVLAGIAAYFAALAVLGFKVKEFARRTV [P0AF16] | 6.51 ± 0.41 | 5.82 ± 0.39 | 5.87 | 6.21 ± 0.26 | 3.36 |  | 9.84 |  | 5.63 ± 0.54 | 10.6 ± 0.34 |  | 8.94 ± 1.4
11 | MNLQHHFLIAMPALQDPIFRRSVVYICEHNTNGAMGIIVNKPLENLKIEGILEKLKITPEPRDESIRLDKPVMLGGPLAEDRGFILHTPPSNFASSIRISDNTVMTTSRDVLETLGTDKQPSDVLVALGYASWEKGQLEQEILDNAWLTAPADLNILFKTPIADRWREAAKLIGVDILTMPGVAGHA [P0A8W5] | 4.47 ± 0.45 | 5.88 ± 1.8 | 4.32 ± 0.34 | 4.027 ± 0.034 | 2.93 ± 0.32 | 5.38 ± 0.81 | 8.21 ± 0.33 | 4.39 ± 0.34 | 5.075 ± 0.018 | 10.2 ± 2.2 | 2.88 ± 0.18 | 6.81 ± 0.54
12 | MNLSLRRSTSALLASSLLLTIGRGATLPFMTIYLSRQYSLSVDLIGYAMTIALTIGVVFSLGFGILADKFDKKRYMLLAITAFASGFIAITLVNNVTLVVLFFALINCAYSVFATVLKAWFADNLSSTSKTKIFSINYTMLNIGWTIGPPLGTLLVMQSINLPFWLAAICSAFPMLFIQIWVKRSEKIIATETGSVWSPKVLLQDKALLWFTCSGFLASFVSGAFASCISQYVMVIADGDFAEKVVAVVLPVNAAMVVTLQYSVGRRLNPANIRALMTAGTLCFVIGLVGFIFSGNSLLLWGMSAAVFTVGEIIYAPGEYMLIDHIAPPEMKASYFSAQSLGWLGAAINPLVSGVVLTSLPPSSLFVILALVIIAAWVLMLKGIRARPWGQPALC |  |  |  |  | 1.77 |  |  |  |  |  |  | 
13 | MNLSTKQKQHLKGLAHPLKPVVLLGSNGLTEGVLAEIEQALEHHELIKVKIATEDRETKTLIVEAIVRETGACNVQVIGKTLVLYRPTKERKISLPR [P0AGK4] | 7 ± 0.84 | 5.91 ± 0.59 | 6.12 ± 0.24 | 5.7 ± 0.41 | 3.11 ± 0.53 | 5.73 ± 0.12 | 9.46 ± 1.2 | 4.83 ± 0.25 | 4.88 ± 1.1 | 12.6 ± 3 | 6.47 ± 0.075 | 10.8 ± 2.1
